Data taken from PMC9482650, “Quantitative fragmentomics allow affinity mapping of interactomes” (Nature Communications, 2022).

How the values were obtained:
Assay in all cases: holdup assay
Design in all cases: key: below the threshold = too weak to quantify, mostly under pKd 3.1 to 4
Conditions in all cases: plain residues with an end cap or a label only (N-terminal biotin on a linker: ado-ado)
[1] = target: MAGI2_5, Q86UL8
[2] = target: MAGI2_6, Q86UL8
[3] = target: T1, DFNB31_1, Q9P202
T1 sequence (Q9P202 135-233, limits assumed, looked up): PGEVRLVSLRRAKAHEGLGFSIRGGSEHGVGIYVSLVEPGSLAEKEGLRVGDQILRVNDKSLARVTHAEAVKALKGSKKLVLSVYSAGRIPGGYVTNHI

[4] = target: T2, DVL3, Q92997
T2 sequence (Q92997 244-331, limits assumed, looked up): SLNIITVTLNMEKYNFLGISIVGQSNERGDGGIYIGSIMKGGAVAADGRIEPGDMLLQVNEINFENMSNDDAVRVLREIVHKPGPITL

[5] = target: T3, PDZD7_3, Q9H5P4
T3 sequence (Q9H5P4 857-944, limits assumed, looked up): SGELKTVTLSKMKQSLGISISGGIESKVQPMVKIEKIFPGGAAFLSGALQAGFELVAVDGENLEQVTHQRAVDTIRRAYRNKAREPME

[6] = target: Inadl_1, Q8NI35
Inadl_1, Q8NI35, sequence (Q8NI35 113-229): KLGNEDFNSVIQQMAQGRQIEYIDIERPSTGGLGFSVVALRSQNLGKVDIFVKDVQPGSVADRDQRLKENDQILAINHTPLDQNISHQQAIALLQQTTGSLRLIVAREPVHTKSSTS

[7] = target: GRIP2_6, Q9C0E4
GRIP2_6, Q9C0E4, sequence (Q9C0E4 648-740): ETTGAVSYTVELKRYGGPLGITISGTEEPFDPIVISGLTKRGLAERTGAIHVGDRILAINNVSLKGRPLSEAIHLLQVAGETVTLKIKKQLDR

[8] = target: T4, GRIP1_2, Q9Y3R0
T4 sequence (Q9Y3R0 145-248, limits assumed, looked up): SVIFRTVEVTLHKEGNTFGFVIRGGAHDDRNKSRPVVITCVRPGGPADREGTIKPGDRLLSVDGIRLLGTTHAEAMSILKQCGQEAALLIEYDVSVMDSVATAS

[9] = target: GRIP2_3, Q9C0E4
GRIP2_3, Q9C0E4, sequence (Q9C0E4 238-339): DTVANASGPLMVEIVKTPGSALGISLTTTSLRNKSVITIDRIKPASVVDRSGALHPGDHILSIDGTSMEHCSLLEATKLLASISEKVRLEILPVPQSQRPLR

[10] = target: LAP2, Q96RT1
LAP2, Q96RT1, sequence (Q96RT1 other isoform, or with tags, fused parts or gaps): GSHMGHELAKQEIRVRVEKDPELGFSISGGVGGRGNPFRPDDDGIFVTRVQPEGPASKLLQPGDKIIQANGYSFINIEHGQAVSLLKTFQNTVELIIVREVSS

[11] = target: T5, APBA3_1, O96018
T5 sequence (O96018 389-490, limits assumed, looked up): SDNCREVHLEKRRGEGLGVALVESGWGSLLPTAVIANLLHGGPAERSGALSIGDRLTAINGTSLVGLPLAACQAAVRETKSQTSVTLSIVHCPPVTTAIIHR

[12] = target: GORASP1, Q9BQQ3
GORASP1, Q9BQQ3, sequence (Q9BQQ3 1-208): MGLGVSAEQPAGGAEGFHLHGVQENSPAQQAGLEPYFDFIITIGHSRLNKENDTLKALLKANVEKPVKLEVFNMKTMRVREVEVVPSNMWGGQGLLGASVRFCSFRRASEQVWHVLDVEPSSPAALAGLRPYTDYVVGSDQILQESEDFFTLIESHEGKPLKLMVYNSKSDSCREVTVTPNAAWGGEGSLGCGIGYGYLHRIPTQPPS

[13] = target: GORASP2, Q9H8Y8
[14] = target: DLG2_2, Q15700
DLG2_2, Q15700, sequence (Q15700 189-283): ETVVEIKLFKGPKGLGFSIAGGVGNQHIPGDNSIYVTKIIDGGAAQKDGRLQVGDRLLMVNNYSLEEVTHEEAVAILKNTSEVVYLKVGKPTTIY

[15] = target: Inadl_4, Q8NI35
Inadl_4, Q8NI35, sequence (Q8NI35 547-651): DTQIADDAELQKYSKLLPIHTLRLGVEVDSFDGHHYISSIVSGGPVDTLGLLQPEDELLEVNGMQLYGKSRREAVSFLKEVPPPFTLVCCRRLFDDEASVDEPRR

[16] = target: T6, HTRA3, P83110
T6 sequence (P83110 354-453, limits assumed, looked up): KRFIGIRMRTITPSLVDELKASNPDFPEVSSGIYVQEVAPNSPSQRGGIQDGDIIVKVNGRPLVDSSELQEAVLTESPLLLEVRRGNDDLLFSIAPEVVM

[17] = target: T7, LNX2_2, Q8N448
T7 sequence (Q8N448 334-432, limits assumed, looked up): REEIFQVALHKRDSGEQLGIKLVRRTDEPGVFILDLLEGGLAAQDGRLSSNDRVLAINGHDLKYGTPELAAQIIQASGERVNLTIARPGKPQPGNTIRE

[18] = target: MAGI1_1, Q96QZ7
MAGI1_1, Q96QZ7, sequence (Q96QZ7 1-106): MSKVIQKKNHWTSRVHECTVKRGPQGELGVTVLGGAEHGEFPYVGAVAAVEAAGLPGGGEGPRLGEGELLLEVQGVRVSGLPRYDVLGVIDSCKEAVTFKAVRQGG

[19] = target: T8, LIN7A, O14910
T8 sequence (O14910 103-200, limits assumed, looked up): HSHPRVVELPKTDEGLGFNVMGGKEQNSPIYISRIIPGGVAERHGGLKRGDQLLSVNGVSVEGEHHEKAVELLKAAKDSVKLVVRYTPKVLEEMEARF

[20] = target: NHERF4_4, Q86UT5
NHERF4_4, Q86UT5, sequence (Q86UT5 464-550): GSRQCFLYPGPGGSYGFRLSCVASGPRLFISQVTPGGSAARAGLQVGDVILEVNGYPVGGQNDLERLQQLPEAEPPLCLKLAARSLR

[21] = target: T9, MPDZ_12, O75970
T9 sequence (O75970 1857-1958, limits assumed, looked up): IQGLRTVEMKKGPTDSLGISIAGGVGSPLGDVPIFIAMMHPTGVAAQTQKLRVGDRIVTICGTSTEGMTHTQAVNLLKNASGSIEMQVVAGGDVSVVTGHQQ

[22] = target: TJP2_1, Q9UDY2
TJP2_1, Q9UDY2, sequence (Q9UDY2 24-128): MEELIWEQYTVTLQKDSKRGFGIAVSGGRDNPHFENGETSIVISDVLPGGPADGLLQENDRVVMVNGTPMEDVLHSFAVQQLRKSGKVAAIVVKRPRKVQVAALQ

[23] = target: T10, PDZRN3_1, Q9UPQ7
T10 sequence (Q9UPQ7 244-349, limits assumed, looked up): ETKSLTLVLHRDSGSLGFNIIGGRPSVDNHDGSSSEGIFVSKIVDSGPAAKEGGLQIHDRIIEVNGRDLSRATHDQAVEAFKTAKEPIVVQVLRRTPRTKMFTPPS

[24] = target: T11, CARD11, Q9BXL7
T11 sequence (Q9BXL7 662-765, limits assumed, looked up): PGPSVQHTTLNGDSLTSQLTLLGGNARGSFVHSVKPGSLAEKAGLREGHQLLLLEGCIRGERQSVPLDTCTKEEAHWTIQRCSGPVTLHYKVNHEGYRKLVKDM

[25] = target: GRIP2_7, Q9C0E4
GRIP2_7, Q9C0E4, sequence (Q9C0E4 934-1023): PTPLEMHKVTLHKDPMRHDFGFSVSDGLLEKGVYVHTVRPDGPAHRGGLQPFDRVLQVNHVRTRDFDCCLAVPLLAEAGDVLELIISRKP

[26] = target: SCRIB_3, Q14160
SCRIB_3, Q14160, sequence (Q14160 999-1103): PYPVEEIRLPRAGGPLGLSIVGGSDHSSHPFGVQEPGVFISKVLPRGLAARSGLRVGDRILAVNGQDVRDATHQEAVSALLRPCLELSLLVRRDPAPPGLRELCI

[27] = target: Inadl_9, Q8NI35
Inadl_9, Q8NI35, sequence (Q8NI35 1530-1615): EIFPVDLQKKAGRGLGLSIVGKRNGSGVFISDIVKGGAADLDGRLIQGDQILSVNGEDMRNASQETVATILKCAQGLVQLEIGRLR

MAGI2_6, Q86UL8, sequence (Q86UL8 1141-1229): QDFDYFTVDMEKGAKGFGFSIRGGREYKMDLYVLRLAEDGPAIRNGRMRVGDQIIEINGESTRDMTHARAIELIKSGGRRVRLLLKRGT
MAGI2_5, Q86UL8, sequence (Q86UL8 915-1017): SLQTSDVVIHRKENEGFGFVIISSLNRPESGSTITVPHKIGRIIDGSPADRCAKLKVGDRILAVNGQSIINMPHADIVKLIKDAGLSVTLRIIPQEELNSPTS

RQSILFSTEV [BCR, P11274]
pKd [1]: 5.17
pKd [2]: 4.67
pKd [3]: 4.27
pKd [4]: below the threshold
pKd [5]: 4.85
pKd [6]: 3.88
pKd [7]: 4.47
pKd [8]: below the threshold
pKd [9]: 3.69
pKd [10]: 4.39
pKd [11]: below the threshold
pKd [12]: below the threshold
pKd [13]: 3.82
pKd [14]: 4.63
pKd [15]: below the threshold
pKd [16]: 3.63
pKd [17]: 4.71
pKd [18]: below the threshold
pKd [19]: 3.66
pKd [20]: below the threshold
pKd [21]: 4.41
pKd [22]: 3.69
pKd [23]: 4.03
pKd [24]: below the threshold
pKd [25]: 3.66
pKd [26]: 4.58
pKd [27]: 4.09

EEDTAEKDEL [HSPA5, P11021]
pKd [1]: below the threshold
pKd [2]: below the threshold
pKd [3]: below the threshold
pKd [4]: below the threshold
pKd [5]: below the threshold
pKd [6]: below the threshold
pKd [7]: below the threshold
pKd [8]: below the threshold
pKd [9]: below the threshold
pKd [10]: below the threshold
pKd [11]: below the threshold
pKd [12]: below the threshold
pKd [13]: below the threshold
pKd [14]: below the threshold
pKd [15]: below the threshold
pKd [16]: below the threshold
pKd [17]: below the threshold
pKd [18]: 3.51
pKd [19]: 3.49
pKd [20]: below the threshold
pKd [21]: 3.52
pKd [22]: below the threshold
pKd [23]: below the threshold
pKd [24]: below the threshold
pKd [25]: below the threshold
pKd [26]: below the threshold
pKd [27]: below the threshold

PELESKESVL [SLC1A4, P43007]
pKd [1]: 4.02
pKd [2]: 3.93
pKd [3]: 3.6
pKd [4]: below the threshold
pKd [5]: 4.8
pKd [6]: below the threshold
pKd [7]: below the threshold
pKd [8]: below the threshold
pKd [9]: below the threshold
pKd [10]: 3.55
pKd [11]: below the threshold
pKd [12]: below the threshold
pKd [13]: below the threshold
pKd [14]: 3.71
pKd [15]: below the threshold
pKd [16]: below the threshold
pKd [17]: below the threshold
pKd [18]: below the threshold
pKd [19]: below the threshold
pKd [20]: below the threshold
pKd [21]: below the threshold
pKd [22]: below the threshold
pKd [23]: 4.46
pKd [24]: below the threshold
pKd [25]: below the threshold
pKd [26]: 4.7
pKd [27]: below the threshold

SMLNRRTTPV [CACNG4, Q9UBN1]
pKd [1]: below the threshold
pKd [2]: below the threshold
pKd [3]: 4
pKd [4]: below the threshold
pKd [5]: 4.07
pKd [6]: below the threshold
pKd [7]: below the threshold
pKd [8]: below the threshold
pKd [9]: below the threshold
pKd [10]: 3.49
pKd [11]: below the threshold
pKd [12]: below the threshold
pKd [13]: below the threshold
pKd [14]: 4.51
pKd [15]: below the threshold
pKd [16]: below the threshold
pKd [17]: below the threshold
pKd [18]: below the threshold
pKd [19]: below the threshold
pKd [20]: below the threshold
pKd [21]: below the threshold
pKd [22]: 3.97
pKd [23]: 4.35
pKd [24]: below the threshold
pKd [25]: below the threshold
pKd [26]: 4.11
pKd [27]: below the threshold

LSEFKAMDSF [CTNNA2, P26232]
pKd [1]: below the threshold
pKd [2]: below the threshold
pKd [3]: below the threshold
pKd [4]: below the threshold
pKd [5]: below the threshold
pKd [6]: below the threshold
pKd [7]: below the threshold
pKd [8]: below the threshold
pKd [9]: below the threshold
pKd [10]: below the threshold
pKd [11]: below the threshold
pKd [12]: below the threshold
pKd [13]: below the threshold
pKd [14]: below the threshold
pKd [15]: below the threshold
pKd [16]: below the threshold
pKd [17]: below the threshold
pKd [18]: below the threshold
pKd [19]: below the threshold
pKd [20]: below the threshold
pKd [21]: below the threshold
pKd [22]: below the threshold
pKd [23]: below the threshold
pKd [24]: below the threshold
pKd [25]: below the threshold
pKd [26]: below the threshold
pKd [27]: below the threshold
